For 6 molecules, Kd results are on record in publication PMC2714321, “DNA binding kinetics of two response regulators, PlnC and PlnD, from the bacteriocin regulon of Lactobacillus plantarum C11”.

As usually defined, the Kd is the constant that tells how readily two partners part at equilibrium. The low end stands for tighter binding, the high end for weaker binding.

Common to all, as to details: protein: native; tags: N-terminal FLAG; chain copies: 2; label: biotin on forward strand; blunt
The target in one data set is T1, f-PlnD (Lactobacillus plantarum C11, UniProt Q48830 1-247).
T1 sequence: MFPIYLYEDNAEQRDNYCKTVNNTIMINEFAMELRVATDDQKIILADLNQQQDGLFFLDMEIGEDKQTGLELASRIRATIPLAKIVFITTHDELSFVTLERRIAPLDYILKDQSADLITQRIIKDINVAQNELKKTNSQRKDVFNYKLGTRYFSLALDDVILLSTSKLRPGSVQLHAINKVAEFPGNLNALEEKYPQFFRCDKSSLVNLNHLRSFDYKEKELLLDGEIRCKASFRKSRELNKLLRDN
Briefly: SPR; site 1 (KD1), heterogeneous ligand model; SPR (Biacore 3000, SA chip): 20 mM Tris-HCl pH 8.0, 100 mM NaCl, 5 mM MgCl2, 1 mM EDTA, 0.025% Triton X-100, 25°C; signals corrected by subtraction of control DNA (S8/rc) reference cell, no outcome reported for it. For orientation: SPR reads the build-up and loss of mass on a sensor chip optically.

Data set [1] has as its target T2, f-PlnC (Lactobacillus plantarum C11, UniProt Q48829 1-247).
T2 sequence: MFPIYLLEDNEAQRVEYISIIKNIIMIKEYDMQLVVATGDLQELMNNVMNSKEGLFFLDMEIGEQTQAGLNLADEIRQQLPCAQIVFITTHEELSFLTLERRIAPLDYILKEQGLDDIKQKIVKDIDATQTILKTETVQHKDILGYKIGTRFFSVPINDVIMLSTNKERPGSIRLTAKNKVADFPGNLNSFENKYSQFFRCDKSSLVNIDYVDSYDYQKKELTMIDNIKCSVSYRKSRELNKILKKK
Briefly: SPR; site 1 (KD1), heterogeneous ligand model; Discussion gives 1e-7 range; SPR (Biacore 3000, SA chip): 20 mM Tris-HCl pH 8.0, 100 mM NaCl, 5 mM MgCl2, 1 mM EDTA, 0.025% Triton X-100, 25°C; signals corrected by subtraction of control DNA (S8/rc) reference cell, no outcome reported for it.

In data set [2] the target is T2, f-PlnC. Briefly: SPR; site 1 (KD1), heterogeneous ligand model; SPR (Biacore 3000, SA chip): 20 mM Tris-HCl pH 8.0, 100 mM NaCl, 5 mM MgCl2, 1 mM EDTA, 0.025% Triton X-100, 25°C; signals corrected by subtraction of control DNA (S8/rc) reference cell, no outcome reported for it.
Data set [3] addresses T2, f-PlnC. Briefly: SPR; single site, Langmuir 1:1 model; SPR (Biacore 3000, SA chip): 20 mM Tris-HCl pH 8.0, 100 mM NaCl, 5 mM MgCl2, 1 mM EDTA, 0.025% Triton X-100, 25°C; signals corrected by subtraction of control DNA (S8/rc) reference cell, no outcome reported for it.
Data set [4] concerns the target T2, f-PlnC. Briefly: SPR; site 1 (KD1), ka fitted locally; SPR (Biacore 3000, SA chip): 20 mM Tris-HCl pH 8.0, 100 mM NaCl, 5 mM MgCl2, 1 mM EDTA, 0.025% Triton X-100, 25°C; signals corrected by subtraction of control DNA (S8/rc) reference cell, no outcome reported for it.

B1: PplnA (dsDNA)
DNA 1: CATGGTGATTCACGTTTAAATTTAAAAAATGTACGTTAATAGAAATAATT
DNA 2: AATTATTTCTATTAACGTACATTTTTTAAATTTAAACGTGAATCACCATG
In the case of B1, the Kd in the data set with f-PlnD and with f-PlnC [1] was 1500 nM each time.

B2: PplnJ (dsDNA)
DNA 1: ACTTTCAAGTTACGTTAAATCGATTAAATAGTACGATAACAAATTTAAAA
DNA 2: TTTTAAATTTGTTATCGTACTATTTAATCGATTTAACGTAACTTGAAAGT
In the case of B2, the Kd with f-PlnD worked out at 12000 nM.

B3: PplnM (dsDNA)
DNA 1: TGAATTATTGTACGATAATATCTAAAAATATTACGTTTATAAAAATATCG
DNA 2: CGATATTTTTATAAACGTAATATTTTTAGATATTATCGTACAATAATTCA
For B3, the Kd with f-PlnD was determined as 560 nM; with f-PlnC [2], 380 nM.

B4: PplnE (dsDNA)
DNA 1: ATTGGTATTTGACGTTAAGAGAACGTTTTTTTACTTTTATAATTTTTTCA
DNA 2: TGAAAAAATTATAAAAGTAAAAAAACGTTCTCTTAACGTCAAATACCAAT
Regarding B4, in the data set with f-PlnC [2], the Kd turned out to be 210 nM.

B5: PplnAΔL (dsDNA)
DNA 1: CATGGTGATTTTAAAATTTATTTAAAAAATGTACGTTAATAGAAATAATT
DNA 2: AATTATTTCTATTAACGTACATTTTTTAAATAAATTTTAAAATCACCATG
In the data set with f-PlnC [3], B5 gave a Kd of 300 nM.

B6: PplnG (dsDNA)
DNA 1: GCCTGATGAGGACATTTATCATAAAATTATGTACGTTAATAGATAGTTGG
DNA 2: CCAACTATCTATTAACGTACATAATTTTATGATAAATGTCCTCATCAGGC
Regarding B6, the Kd in the data set with f-PlnD stood at 14000 nM; with f-PlnC [4], 170 nM.
